# Laboratory results taken from paper PMC3186816 (Molecular & Cellular Proteomics : MCP, 2011).
# Several values for one entry are separate records, joined by “and”; a condition that tells them apart may be missing. Identical values can stand only once. Like-named read-outs stand apart in the source and are kept apart here.
# T1: phage p2 baseplate [6xORF15 + 3xORF16 + 18xORF18] (Lactococcus phage p2)
# T1 chain 1: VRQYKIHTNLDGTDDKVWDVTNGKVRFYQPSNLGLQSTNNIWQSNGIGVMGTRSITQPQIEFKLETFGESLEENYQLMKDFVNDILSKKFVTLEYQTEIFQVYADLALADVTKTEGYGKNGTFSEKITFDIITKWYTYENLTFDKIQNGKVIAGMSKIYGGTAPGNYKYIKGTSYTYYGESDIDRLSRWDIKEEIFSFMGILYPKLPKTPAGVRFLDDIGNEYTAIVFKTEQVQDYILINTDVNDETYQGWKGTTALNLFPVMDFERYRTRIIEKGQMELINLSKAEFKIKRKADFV
# T1 chain 2: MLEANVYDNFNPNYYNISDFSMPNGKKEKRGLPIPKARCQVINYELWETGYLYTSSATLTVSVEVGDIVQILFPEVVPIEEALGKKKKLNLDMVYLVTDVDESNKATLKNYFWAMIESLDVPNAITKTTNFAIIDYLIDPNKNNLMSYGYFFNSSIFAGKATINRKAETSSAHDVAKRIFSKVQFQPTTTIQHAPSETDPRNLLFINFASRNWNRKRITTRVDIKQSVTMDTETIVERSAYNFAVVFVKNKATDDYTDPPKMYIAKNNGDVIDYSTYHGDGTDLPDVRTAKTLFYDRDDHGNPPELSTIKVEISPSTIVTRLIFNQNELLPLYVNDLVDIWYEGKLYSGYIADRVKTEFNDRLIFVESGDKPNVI
# T1 chain 3: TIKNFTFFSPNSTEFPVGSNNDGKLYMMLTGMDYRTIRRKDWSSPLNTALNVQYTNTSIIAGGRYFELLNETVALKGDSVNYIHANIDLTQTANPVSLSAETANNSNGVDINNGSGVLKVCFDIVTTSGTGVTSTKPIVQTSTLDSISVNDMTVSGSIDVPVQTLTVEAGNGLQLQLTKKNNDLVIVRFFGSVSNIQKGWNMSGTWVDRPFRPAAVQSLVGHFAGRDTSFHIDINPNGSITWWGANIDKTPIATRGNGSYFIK
# Key:
# [1] = molecular target: phage TP901-1 ORF48 (BppU), as in the Tripod sample (Lactococcus phage TP901-1); test: native MS
# [2] = molecular target: phage TP901-1 ORF48 (BppU), as in the samples TP1 and Dit-BppU (Lactococcus phage TP901-1); test: native MS
# [3] = molecular target: phage TP901-1 ORF48 (BppU), as in the samples TP1 and Dit-BppU (Lactococcus phage TP901-1); test: native MS; remark: listed apart in the source
# [4] = molecular target: Tal-N (TP901-1 ORF47 N-terminal region, residues 1-386) (Lactococcus phage TP901-1); test: native MS
# [5] = molecular target: Tal-N (TP901-1 ORF47 N-terminal region, residues 1-386) (Lactococcus phage TP901-1); test: denaturing ESI-MS
# [6] = molecular target: phage p2 ORF16 (Lactococcus phage p2); test: native MS
# [7] = molecular target: phage p2 ORF16 (Lactococcus phage p2); test: native MS; remark: listed apart in the source
# [8] = molecular target: phage TP901-1 ORF49 (BppL), as in the Tripod sample (Lactococcus phage TP901-1); test: native MS
# [9] = molecular target: phage TP901-1 ORF46 (Dit) (Lactococcus phage TP901-1); test: native MS
# [10] = molecular target: phage TP901-1 ORF46 (Dit) (Lactococcus phage TP901-1); test: denaturing ESI-MS
# [11] = molecular target: phage TP901-1 ORF46 (Dit) (Lactococcus phage TP901-1); test: SEC-MALS
# [12] = molecular target: phage TP901-1 ORF46 (Dit) (Lactococcus phage TP901-1); test: native MS; remark: listed apart in the source
# [13] = molecular target: phage p2 baseplate subcomplex SBP1 [6xORF15 + 3xORF16] (Lactococcus phage p2) (UniProt D3WAD3); test: native MS
# [14] = molecular target: phage p2 ORF15 (as in the sample SBP1) (Lactococcus phage p2) (UniProt D3WAD3); test: native MS
# [15] = molecular target: phage TP901-1 ORF49 (BppL, the RBP), as in the sample TP1 (Lactococcus phage TP901-1); test: native MS
# [16] = molecular target: T1, phage p2 baseplate [6xORF15 + 3xORF16 + …; test: native MS
# native MS [17] = molecular target: the molecule itself; test: native MS
# native MS [18] = molecular target: the molecule itself; test: native MS; remark: listed apart in the source
# native MS [19] = molecular target: the molecule itself; test: native MS; remark: listed apart in the source
# denaturing ESI-MS = molecular target: the molecule itself; test: denaturing ESI-MS
molecule,measurement,setting,value
"phage TP901-1 ORF48 (BppU), as in the Tripod sample (natural protein)",stoichiometry N,[1],3
"phage TP901-1 ORF48 (BppU), as in the samples TP1 and Dit-BppU (natural protein)",stoichiometry N,[2],3
same,stoichiometry N,[3],3
"Tal-N (TP901-1 ORF47 N-terminal region, residues 1-386) (domain or fragment)",stoichiometry N,[4],2 and 3
same,stoichiometry N,[5],2 and 3
phage p2 ORF16 (natural protein),stoichiometry N,[6],2 and 3
same,stoichiometry N,[7],3
"phage TP901-1 ORF49 (BppL), as in the Tripod sample (natural protein)",stoichiometry N,[8],3
phage TP901-1 ORF46 (Dit) (natural protein),stoichiometry N,[9],6
same,stoichiometry N,[10],2 and 3 and 6
same,stoichiometry N,[11],12
same,stoichiometry N,[12],6 and 12
phage p2 baseplate subcomplex SBP1 [6xORF15 + 3xORF16] (from UniProt D3WAD3 2-298),stoichiometry N,[13],2
phage p2 ORF15 (as in the sample SBP1) (from UniProt D3WAD3 2-298) (natural protein),stoichiometry N,[14],6
"phage TP901-1 ORF49 (BppL, the RBP), as in the sample TP1 (natural protein)",stoichiometry N,[15],3 and 6
VHH5 neutralizing llama antibody fragment (VHH) VHH: QVQLQESGGGLVQAGGSLRLSCTASRRTGSNWCMGWFRQLAGKEPELVVALNFDYDMTYYADSVKGRFTVSRDSGKNTVYLQMNSLKPEDTAIYYCAARSGGFSSNRELYDGWGQGTQVTVSS,stoichiometry N,[16],18
"phage p2 ORF15 (as in the samples BP1, BP2 and SBP2) (natural protein, Lactococcus phage p2) VRQYKIHTNLDGTDDKVWDVTNGKVRFYQPSNLGLQSTNNIWQSNGIGVMGTRSITQPQIEFKLETFGESLEENYQLMKDFVNDILSKKFVTLEYQTEIFQVYADLALADVTKTEGYGKNGTFSEKITFDIITKWYTYENLTFDKIQNGKVIAGMSKIYGGTAPGNYKYIKGTSYTYYGESDIDRLSRWDIKEEIFSFMGILYPKLPKTPAGVRFLDDIGNEYTAIVFKTEQVQDYILINTDVNDETYQGWKGTTALNLFPVMDFERYRTRIIEKGQMELINLSKAEFKIKRKADFV",stoichiometry N,native MS [17],6
"phage p2 ORF18 (receptor-binding protein) (natural protein, Lactococcus phage p2) TIKNFTFFSPNSTEFPVGSNNDGKLYMMLTGMDYRTIRRKDWSSPLNTALNVQYTNTSIIAGGRYFELLNETVALKGDSVNYIHANIDLTQTANPVSLSAETANNSNGVDINNGSGVLKVCFDIVTTSGTGVTSTKPIVQTSTLDSISVNDMTVSGSIDVPVQTLTVEAGNGLQLQLTKKNNDLVIVRFFGSVSNIQKGWNMSGTWVDRPFRPAAVQSLVGHFAGRDTSFHIDINPNGSITWWGANIDKTPIATRGNGSYFIK",stoichiometry N,native MS [18],3
same,stoichiometry N,native MS [19],3
same,stoichiometry N,denaturing ESI-MS,2
